Laboratory results taken from patent US20230174624A1, “FERRITIN VARIANTS WITH INCREASED STABILITY, COMPLEXATION ABILITY AND TRANSFERRIN RECEPTOR AFFINITY” (CELLIS AG, priority 2020, published 2023).
“Also recorded” adds a separate entry of the source.

What was measured:
[1] = Native PAGE gel after doxorubicin encapsulation and purification; format: physicochemical; details: ferritin-dox after encapsulation, concentrated on 10 or 100 kDa Amicon
From the text: Native PAGE gel has been performed in order to check the size of the protein after encapsulation and purification.

[2] = tested on: breast and ovarian cancer cell lines: MDA-MB 231, Skov3 and 4T1; assay: Tumour cell viability after co-culture with macrophages carrying doxorubicin packed ferritin; format: cell-based; details: 72 h co-culture with macrophages, ferritin cages filled with doxorubicin 1 mg/ml
Experimental: FIG. 7: Graphs of tumour cell viability after 72 h co-culture with macrophages. The concentration of ferritin cages filled with doxorubicin was the same for each variant of ferritin and was equal to 1 mg/ml.
In vitro experiments have shown that ferritin mutants reveal better cytotoxicity against tumor cells. The doxorubicin packed proteins were inserted into macrophages and then co-cultured with breast and ovarian cancer cell lines: MDA-MB 231, Skov3 and 4T1. The number of viable cells after co-culture was the lowest for the Q11E-Q15E mutant (FIG. 7).

[3] = Native gel after storage in a freezer (-80 degrees Celsius) and thawing; format: physicochemical; details: ferritin-dox
siRNA = siRNA association with ferritin (gel); format: binding
Experimental: 1 ml reaction containing 2 mg Ft and 4 ug siRNA in DPBS, pH lowered to values as indicated (2.5, 3.2, 4.4, 5.6 and 6.8, respectively). Samples were incubated 15 min in RT, then NaOH was added to adjust pH to neutral (pH 7). Non-associated free siRNA was removed by 4 centrifugation steps on Amicons with 100 kDa cut-off.

TfR1 = TfR1 (Homo sapiens, UniProt P02786); assay: Surface plasmon resonance binding of ferritin to immobilized his-tagged TFRC receptor
TfR1, sequence (P02786 whole entry, species assumed): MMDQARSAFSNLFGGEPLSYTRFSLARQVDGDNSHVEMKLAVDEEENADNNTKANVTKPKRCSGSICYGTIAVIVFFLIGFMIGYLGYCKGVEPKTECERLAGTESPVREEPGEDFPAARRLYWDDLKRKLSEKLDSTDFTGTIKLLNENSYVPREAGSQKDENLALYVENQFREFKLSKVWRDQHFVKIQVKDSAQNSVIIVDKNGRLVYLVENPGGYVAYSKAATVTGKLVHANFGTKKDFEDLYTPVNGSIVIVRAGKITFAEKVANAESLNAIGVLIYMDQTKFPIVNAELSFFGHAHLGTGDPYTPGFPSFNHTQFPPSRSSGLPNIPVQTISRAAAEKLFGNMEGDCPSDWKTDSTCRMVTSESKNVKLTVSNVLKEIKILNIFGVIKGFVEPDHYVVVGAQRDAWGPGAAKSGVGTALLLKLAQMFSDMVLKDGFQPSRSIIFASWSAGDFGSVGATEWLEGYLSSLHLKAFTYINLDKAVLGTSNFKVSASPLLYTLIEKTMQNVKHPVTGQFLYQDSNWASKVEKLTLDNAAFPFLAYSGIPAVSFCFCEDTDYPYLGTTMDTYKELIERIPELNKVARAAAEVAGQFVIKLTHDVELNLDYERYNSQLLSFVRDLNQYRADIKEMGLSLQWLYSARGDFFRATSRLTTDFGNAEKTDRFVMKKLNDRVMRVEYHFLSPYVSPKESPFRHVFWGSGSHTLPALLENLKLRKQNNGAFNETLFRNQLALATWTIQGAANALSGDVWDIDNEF
Experimental: FIG. 2: Sensorgrams corresponding to the interaction between the immobilized his-tagged TFRC receptor and human ferritin. Panel A: mutant Q11E, panel B: wild type. X-axis: time (s). The same amount of receptor was trapped onto the chip surface (see methods section for details). Five different analyte concentrations (0.0625, 0.125, 0.250, 0.5 and 1 mg/ml) were used. For all analyte concentrations measured, the amount of ferritin bound is higher for the Q11E mutant than for wild-type ferritin.
Binding of wild type and Q11E mutant ferritin to TfR1 was analysed by surface plasmon resonance.

Row | binding affinity to the CD71 receptor relative to wild type (TfR1) | rate of release from its complex with CD71 receptor (TfR1) | KD (TfR1; global fit, simple 1:1 binding mode, versus wild type) | amount of ferritin bound (TfR1; versus wild-type ferritin, analyte 0.0625-1 mg/ml) | Substance | forms on native gel (24-mers versus aggregates) [1] | number of viable cells after co-culture [2] | stability of cages after storage [3] | association with siRNA (siRNA; incubated in pH 2.4 and 3.2) | association with siRNA (siRNA; incubated in pH range 4.4 to 6.8)
1 | – | – | – | – | Q11E-Q15E: human H ferritin mutant Q11E Q15E (TRBD SEQ ID NO. 12); in examples 3-8 also K54E, K72E, K87Q, K144E, C91S, C103S (MTTASTSQVRENYHEDSEAA; listed as Homo sapiens) | present as 24-mers (homogeneous cages) | lowest | still present as 24-mers (homogeneous cages) after storage | – | –
2 | at least fourfold | slow rate of release | lower KD value | higher | Q11E: human H ferritin mutant Q11E (TRBD SEQ ID NO. 05); in examples 3-8 also K54E, K72E, K87Q, K144E, C91S, C103S, C131S (MTTASTSQVRENYHQDSEAA; listed as Homo sapiens) | present as 24-mers (homogeneous cages) | – | still present as 24-mers (homogeneous cages) after storage; also recorded: reduces the presence of aggregates and allows the storage of ferritin cages with doxorubicin in the freezer | not | associated with siRNA
